Target: BI 655089 (llama)
Test: flow cytometry on cells

binding result: binds
B1: human CX3CR1 (receptor, UniProt P49238 1-355, looked up)
chain: MDQFPESVTENFEYDDLAEACYIGDIVVFGTVFLSIFYSVIFAIGLVGNLLVVFALTNSKKPKSVTDIYLLNLALSDLLFVATLPFWTHYLINEKGLHNAMCKFTTAFFFIGFFGSIFFITVISIDRYLAIVLAANSMNNRTVQHGVTISLGVWAAAILVAAPQFMFTKQKENECLGDYPEVLQEIWPVLRNVETNFLGFLLPLLIMSYCYFRIIQTLFSCKNHKKAKAIKLILLVVIVFFLFWTPYNVMIFLETLKLYDFFPSCDMRKDLRLALSVTETVAFSHCCLNPLIYAFAGEKFRRYLYHLYGKCLAVLCGRSVHVDFSSSESQRSRHGSVLSSNFTYHTSDGDALLLL
